Laboratory results as given in patent US12502351B2, “Receptor targeting constructs and uses thereof” (Cedars-Sinai Medical Center, priority 2014, dated 2025).

Assays:
[1] = Tissue distribution in mice with no tumors; type: in vivo, mouse; conditions: tail vein injection
[2] = molecular target: T1, HER3 (Homo sapiens, UniProt P21860); experiment: ELISA of HerPBK10 binding to HER2+ cells with competitive inhibitors or sera
T1 construct: endogenous in cells
Excerpt: (§1) FIGS. 12A-12C is a group of graphs showing HerPBK10 binds to HER3 and is not inhibited by patient serum. […] Un: no HerPBK10. […] Control samples were bound in bovine serum and receptor-binding verified by competitive inhibition with recombinant heregulin ligand (+Her). N=3. *, p<0.05 compared to control (−Her: no competitive inhibitor).

[3] = molecular target: T2, HER3 (human ErbB3 extracellular domain) (Homo sapiens, UniProt P21860); experiment: ELISA of HerPBK10 binding to immobilized HER3
T2 construct: an immobilized peptide containing the extracellular domain of human HER3; purchased Prospec
T2 sequence (P21860 20-643 limits assumed): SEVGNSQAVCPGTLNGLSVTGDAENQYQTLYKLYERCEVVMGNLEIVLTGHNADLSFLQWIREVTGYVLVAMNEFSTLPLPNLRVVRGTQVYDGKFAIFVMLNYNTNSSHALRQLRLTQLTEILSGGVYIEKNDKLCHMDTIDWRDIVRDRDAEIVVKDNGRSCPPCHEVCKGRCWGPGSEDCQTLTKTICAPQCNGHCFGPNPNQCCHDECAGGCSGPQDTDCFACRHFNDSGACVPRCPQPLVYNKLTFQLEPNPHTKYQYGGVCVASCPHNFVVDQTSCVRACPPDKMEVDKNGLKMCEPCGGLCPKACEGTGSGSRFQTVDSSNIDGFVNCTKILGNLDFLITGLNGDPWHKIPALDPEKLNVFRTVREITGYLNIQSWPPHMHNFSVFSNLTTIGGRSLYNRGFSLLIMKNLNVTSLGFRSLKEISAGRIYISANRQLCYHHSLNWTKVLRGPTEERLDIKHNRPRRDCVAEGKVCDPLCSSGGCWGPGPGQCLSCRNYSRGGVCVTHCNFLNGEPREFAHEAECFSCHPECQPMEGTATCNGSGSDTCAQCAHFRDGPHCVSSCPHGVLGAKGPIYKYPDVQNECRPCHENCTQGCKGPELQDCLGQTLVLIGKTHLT
Excerpt: as §1

[4] = repeat dosing, immune-competent mice; cited from earlier work
[5] = molecular target: T3, mouse HER3 (Mus musculus, UniProt Q61526); experiment: Binding of HerPBK10 to 4T1 mouse mammary tumor cells; conditions: soluble HER3 peptide as competitive inhibitor
T3 construct: endogenous in cells; host or cells: 4T1 mouse mammary tumor cells
T3 sequence (Q61526 20-1339): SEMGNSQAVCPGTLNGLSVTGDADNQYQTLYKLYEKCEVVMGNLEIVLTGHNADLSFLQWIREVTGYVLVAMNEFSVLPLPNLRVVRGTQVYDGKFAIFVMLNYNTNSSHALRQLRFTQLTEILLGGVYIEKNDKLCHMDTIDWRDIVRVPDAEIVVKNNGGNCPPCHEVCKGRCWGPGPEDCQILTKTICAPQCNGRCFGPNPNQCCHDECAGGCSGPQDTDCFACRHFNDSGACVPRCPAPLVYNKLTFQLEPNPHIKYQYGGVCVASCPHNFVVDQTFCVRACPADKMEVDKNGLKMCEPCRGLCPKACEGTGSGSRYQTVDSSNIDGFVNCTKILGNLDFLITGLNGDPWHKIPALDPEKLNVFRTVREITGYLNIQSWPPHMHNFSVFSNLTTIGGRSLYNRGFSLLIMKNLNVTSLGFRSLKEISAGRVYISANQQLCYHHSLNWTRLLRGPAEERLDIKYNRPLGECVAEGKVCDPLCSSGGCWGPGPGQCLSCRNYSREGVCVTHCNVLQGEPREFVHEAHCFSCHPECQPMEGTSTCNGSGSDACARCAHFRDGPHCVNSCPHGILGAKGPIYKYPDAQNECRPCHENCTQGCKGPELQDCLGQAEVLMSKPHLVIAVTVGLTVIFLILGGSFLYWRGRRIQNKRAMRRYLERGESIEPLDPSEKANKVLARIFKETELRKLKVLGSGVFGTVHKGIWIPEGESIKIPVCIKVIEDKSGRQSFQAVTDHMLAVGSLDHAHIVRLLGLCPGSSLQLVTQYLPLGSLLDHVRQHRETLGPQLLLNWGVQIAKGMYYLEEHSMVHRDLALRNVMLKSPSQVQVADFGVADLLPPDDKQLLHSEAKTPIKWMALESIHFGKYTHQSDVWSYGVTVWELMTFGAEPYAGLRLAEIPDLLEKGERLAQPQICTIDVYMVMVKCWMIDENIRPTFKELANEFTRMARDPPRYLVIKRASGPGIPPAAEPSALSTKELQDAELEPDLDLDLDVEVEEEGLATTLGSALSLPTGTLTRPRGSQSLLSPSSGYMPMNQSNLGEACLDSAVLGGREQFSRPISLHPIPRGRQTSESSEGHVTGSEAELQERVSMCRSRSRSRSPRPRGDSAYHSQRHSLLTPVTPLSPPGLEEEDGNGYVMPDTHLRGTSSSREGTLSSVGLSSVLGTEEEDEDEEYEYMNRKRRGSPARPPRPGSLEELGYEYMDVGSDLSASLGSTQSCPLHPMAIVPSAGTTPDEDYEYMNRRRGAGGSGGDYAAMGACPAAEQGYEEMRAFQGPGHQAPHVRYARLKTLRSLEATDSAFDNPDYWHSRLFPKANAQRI
Excerpt: FIGS. 13A-13C show the results that HerPBK10 binds to mouse HER3. […] Blue residues indicate amino acid differences. […] N=3. *, p<0.05 compared to HerPBK10 alone

[6] = system: HER2+ tumors; conditions: cited from earlier work
[7] = molecular target: T1, HER3; conditions: cells in culture; cited from earlier work
[8] = system: human cardiosphere-derived cells (CDCs); experiment: Human CDC viability; conditions: 2 or 5 days exposure
[9] = system: MDA-MB-435 cells; experiment: Cy3-labeled oligonucleotide delivery, confocal immunofluorescence; type: cell-based, human; conditions: Cy3-labeled oligonucleotide 50 pmol, 1 h at 37° C.
Description: HerPBK10 transports a labeled oligonucleotide in MDA-MB-435 cells. To determine whether HerPBK10 can mediate single-stranded oligonucleotide delivery, a Cy3-labeled oligonucleotide (50 pmol) was incubated with HerPBK10 (5 μg) or Lipofectamine 2000 (Invitrogen, Carlsbad, CA, USA), a commercial transfection reagent as a comparative control, in 0.1 M HEPES/Optimem I (Invitrogen; Carlsbad, CA, USA) for 20 minutes at RT. The resulting mixture was added to MDA-MB-435 cells, which express HER, and incubated for 1 h at 37° C. Cells were fixed in 4% PFA for 15′ at RT and processed for immunofluorescence against HerPBK10. Cells were counterstained with DAPI to identify nuclei. Images were acquired using a Leica SP2 laser scanning confocal microscope.

T1 sequence (P21860 20-1342): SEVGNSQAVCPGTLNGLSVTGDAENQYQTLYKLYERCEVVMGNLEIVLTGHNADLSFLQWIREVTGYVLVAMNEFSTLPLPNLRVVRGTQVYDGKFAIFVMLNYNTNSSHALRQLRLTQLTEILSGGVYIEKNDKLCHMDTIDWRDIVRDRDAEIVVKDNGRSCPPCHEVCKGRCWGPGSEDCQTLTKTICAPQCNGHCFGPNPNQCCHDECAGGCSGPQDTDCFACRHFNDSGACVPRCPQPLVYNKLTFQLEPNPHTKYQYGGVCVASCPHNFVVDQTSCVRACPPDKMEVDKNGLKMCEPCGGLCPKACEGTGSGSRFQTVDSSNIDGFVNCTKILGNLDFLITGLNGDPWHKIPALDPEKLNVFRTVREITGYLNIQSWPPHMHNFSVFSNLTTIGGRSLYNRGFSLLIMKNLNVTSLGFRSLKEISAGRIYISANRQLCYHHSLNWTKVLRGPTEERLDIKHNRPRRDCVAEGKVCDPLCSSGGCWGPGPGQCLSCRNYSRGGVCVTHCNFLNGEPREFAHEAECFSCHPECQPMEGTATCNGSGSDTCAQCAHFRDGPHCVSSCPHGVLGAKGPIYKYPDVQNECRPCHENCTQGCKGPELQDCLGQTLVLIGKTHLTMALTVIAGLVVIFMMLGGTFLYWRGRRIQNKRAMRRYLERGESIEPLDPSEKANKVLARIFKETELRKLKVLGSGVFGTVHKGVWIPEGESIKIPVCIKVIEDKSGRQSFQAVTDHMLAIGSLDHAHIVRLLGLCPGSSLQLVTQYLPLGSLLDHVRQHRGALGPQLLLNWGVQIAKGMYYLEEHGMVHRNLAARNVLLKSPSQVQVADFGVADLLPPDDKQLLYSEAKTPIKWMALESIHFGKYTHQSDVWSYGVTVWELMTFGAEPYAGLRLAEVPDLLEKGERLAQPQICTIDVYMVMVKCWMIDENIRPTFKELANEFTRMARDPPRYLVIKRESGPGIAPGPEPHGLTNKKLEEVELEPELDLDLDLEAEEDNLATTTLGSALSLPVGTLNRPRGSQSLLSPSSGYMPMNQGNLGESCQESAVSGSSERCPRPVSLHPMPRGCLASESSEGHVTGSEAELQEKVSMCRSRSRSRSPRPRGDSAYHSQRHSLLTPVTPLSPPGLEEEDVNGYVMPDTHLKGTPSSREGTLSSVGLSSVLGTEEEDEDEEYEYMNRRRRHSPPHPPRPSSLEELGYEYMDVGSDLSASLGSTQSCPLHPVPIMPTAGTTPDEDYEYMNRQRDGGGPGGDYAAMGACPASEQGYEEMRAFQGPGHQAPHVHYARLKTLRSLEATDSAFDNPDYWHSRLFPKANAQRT

Molecule	brain delivery in mice without tumors [1]	binding with HER4 peptide or betacellulin ([2]; betacellulin 10 μg/mL)	binding to cellular HER3 with pertuzumab (Pz) ([2]; heterodimerization-inhibiting antibody)	binding to HER2+ cells in patient serum ([2]; sera from HER2+ patients and age-matched controls)	binding to human HER3+ cells with HER3 peptide ([2]; soluble HER3 peptide as competitive inhibitor)	binding to immobilized HER3 [3]	binding to immobilized HER3 with HER3 block ([3]; pre-incubation with soluble HER3 peptide)	neutralizing antibody formation [4]	binding to mouse HER3+ cells with HER3 peptide [5]	dose for tumor growth ablation compared to doxorubicin ([6]; HER2+ tumors in mice) [× lower dose]	effect on heart and liver tissue ([6]; mouse, in vivo)	immunogenicity ([6]; mouse, in vivo)	receptor binding with polyclonal antibodies against whole adenovirus [7]	CDC viability [8]	oligonucleotide transport into cells [9]
PBK10: recombinant protein derived from the adenovirus capsid penton base with decalysine	no detectable brain delivery	–	–	–	–	–	–	–	–	–	–	–	–	–	–
HerPBK10: receptor binding region of heregulin-α (aa 35-239) fused to adenovirus penton base with decalysine tail (protein) LPPRLKEMKSQESAAGSKLVLRCETSSEYSSLRFKWFKNGNELNRKNKPQNIKIQKKPGKSELRINKASLADSGEYMCKVISKLGNDSASANITIVESNEIITGMPASTEGAYVSSESPIRISVSTEGANTSSSTSTSTTGTSHLVKCAEKEKTFCVNGGECFMVKDLSNPSRYLCKCQPGFTGARCTENVPMKVQNQEKAEELYMRRAAMYEEGPPPSYESVVSAAPVAAALGSPFDAPLDPPFVPPRYLRPTGGRNSIRYSELAPLFDTTRVYLVDNKSTDVASLNYQNDHSNFLTTVIQNNDYSPGEASTQTINLDDRSHWGGDLKTILHTNMPNVNEFMFTNKFKARVMVSRLPTKDNQVELKYEWVEFTLPEGNYSETMTIDLMNNAIVEHYLKVGRQNGVLESDIGVKFDTRNFRLGFDPVTGLVMPGVYTNEAFHPDIILLPGCGVDFTHSRLSNLLGIRKRQPFQEGFRITYDDLEGGNIPALLDVDAYQASLKDDTEQGGGGAGGSNSSGSGAEENSNAAAAAMQPVEDMNDHAIRGDTFATRAEEKRAEAEAAAEAAAPAAQPEVEKPQKKPVIKPLTEDSKKRSYNLISNDSTFTQYRSWYLAYNYGDPQTGIRSWTLLCTPDVTCGSEQVYWSLPDMMQDPVTFRSTRQISNFPVVGAELLPVHSKSFYNDQAVYSQLIRQFTSLTHVFNRFPENQILARPPAPTITTVSENVPALTDHGTLPLRNSIGGVQRVTITDARRRTCPYVYKALGIVSPRVLSSRTFKKKKKKKKKK	show brain localization	not inhibited by a HER4 peptide or betacellulin	does not prevent HerPBK10 binding to cellular HER3	do not prevent HerPBK10 binding to HER2+ cells in culture	inhibits binding	bind to an immobilized peptide containing the extracellular domain of human HER3	inhibited by pre-adsorption of HerPBK10 with free HER3 peptide	do not produce detectable neutralizing antibody formation against the protein	inhibits binding	> 10	sparing heart and liver tissue	no detectable immunogenicity	do not prevent receptor binding to cells in culture	no toxic or growth promoting effect on tumor cells or CDCs	colocalized with the oligonucleotide during binding and uptake
